Consider five compounds from patent US20050277575A1, “Therapeutic compositions and methods for treating diseases that involve angiogenesis” (priority 2004, published 2005).

For series [1], the target named is T1, S100A4 (Homo sapiens, UniProt P26447).
T1 construct: GST (N); made in house; host or cells: E. coli ER2507
Nature of the series: Modulation of S100A4 dependent tPA-mediated conversion of plasminogen to plasmin by peptides and chimera. The format is biochemical. The protocol: (§1) The effects of peptide SEQ ID 6, peptide SEQ ID 38 and chimera SEQ ID 39 on acceleration oft-PA-mediated conversion of plasminogen to plasmin induced by S100A4 were measured. The kinetics of t-PA-mediated plasminogen activation were determined by measuring the amidolytic activity of plasmin formed during activation of plasminogen. All the experiments were done in 100 μl volume in 96-well plates in triplicates. Glu-plasminogen (Calbiochem) at the concentration of 100 nM was preincubated at 25° C. for 1 h in the presence or absence of 1 μM recombinant S100A4 in a buffer consisting of 50 mM Tris-HCl, pH 7.4, 100 mM NaCl and 5 mM CaCl2 or 5 mM EGTA. In some experiments, different concentrations of peptides or chimera were preincubated together with proteins. The reaction was initiated by addition of 5 nM t-PA (Calbiochem) and 125 μM chromogenic plasmin substrate, Chromozym PL (Roche). The reactions were monitored at 405 nm for 1.5 h in a SPECTRAmax PLUS^384 microplate spectrophotometer (Molecular Devices) under control of the SOFTmax PRO kinetic program (Molecular Devices). The initial rates of plasmin generation, during the first 10-15 min, were calculated using linear regression analysis of plots of A405 nm versus time 2. The initial rates of plasmin generation were reported in units (K) of A405 nm/min^2×10^3. […] The titration data were analyzed with the four-parameter logistic equation K=(A−D)/(1+(x/C)^B)D. If A, asymptotic minimum, =0, this equation is converted to the Michaelis-Menten equation K=D/(1+(C/[S])^B), where [S] is substrate concentration, D=Vmax, C=Km, and B is the Hill coefficient.
Peptides SEQ ID 6 and SEQ ID 38 inhibited the accelerating effect of S100A4 on t-PA-dependent conversion of plasminogen to plasmin in concentration—dependent manner.
On the other hand, chimera SEQ ID 39 additionally accelerated plasmin formation already accelerated by S100A4.

For series [2], the target named is T1, S100A4. Nature of the series: Fluorescence polarization assay of peptide binding with S100A4. The conditions noted are these: for change of fluorescence polarization upon adding S100A4: same procedure and conditions as for SEQ ID NO 7. As for the experimental part: The following working buffers have been prepared:
TBS-EGTA: 10 mM TRIS buffer containing 150 mM NaCl, 0.05% bovine serum albumine (BSA), 1 mM EGTA
TBS-Ca: 10 mM TRIS buffer containing 150 mM NaCl, 0.05% bovine serum albumine (BSA), 1 mM CaCl2
10 mM solution of peptide SEQ ID NO 7 in DMSO was diluted with in either TBS-EGTA or TBS-Ca to obtain final peptide concentration 20 nM. Samples of these peptide solutions were placed in 384 well plate (Costar No. 3710), 45 microliters per well. Fluorescence polarization of such samples was determined using Perkin Elmer Wallac EnVision 2100 Multilabel Reader equipped with excitation filter 485 nm and emission filters 535 nm for each channel.
S100A4 has been diluted by either TBS-EGTA or by TBS-Ca to obtain a series of solutions of such concentrations that after adding 5 microliters each solution to 45 microliter peptide samples the final concentration of S100A4 was one of following: 0, 10, 30, 100, 300, 1000, 3000, or 10000 nM. Each sample was prepared in triplicate. The samples were mixed carefully while adding the protein to the peptide, and then they were incubated for 1 h at room temperature. The fluorescence polarization of the samples was determined using the same conditions as for the peptide samples before adding S100A4, and the change of fluorescence polarization of the peptide SEQ ID NO 7 upon adding S100A4 was calculated individually for each sample. The results, average of triplicates, are presentsd on the FIG. 6. The apparent binding constant of peptide SEQ ID NO 7 binding to S100A4 is 236 nM.
The same procedure and conditions have been applied to test binding of peptide SEQ ID NO 9, and peptide SEQ ID NO 10, to S100A4.
In general terms: Polarisation of emitted light reports the rotation of a fluorescent probe.

For series [3], the target named is T2, t-PA-mediated plasminogen activation (Homo sapiens, UniProt P00750).
T2 construct: purchased Calbiochem
In words: t-PA-dependent conversion of plasminogen to plasmin, effect of S100A4 (Example 11). Format: biochemical. The conditions noted are these: with or without 2.5 μM S100A4; for Vmax: 150 nM plasminogen, 5 nM t-PA. The protocol:
Non-active plasminogen can be converted to active protease plasmin by tissue type (t-PA) or urokinase type (u-PA) plasminogen activators. Except for its well-known fibrinolytic activity, plasmin also directly and indirectly, by activation of matrix metalloproteinases (MMPs), participates in the degradation of extracellular matrix that is important for the angiogenesis and tumor invasion. The kinetics of t-PA-mediated plasminogen activation was determined by measuring amidolytic activity of the plasmin generated during plasminogen activation. The reaction was performed with the plasmin substrate Chromozyme PL, tosyl-glycyl-prolyl-lysin-4-nitranilide-acetate (Roche) in the final concentration of 125 μM in a buffer consisting of 50 mM Tris-HCl, pH 7.4, 100 mM NaCl, 5 mM of CaCl2 or 5 mM of EGTA, and 150 nM of [Glu] plasminogen (Calbiochem). The reaction was preincubated with or without 2.5 μM S100A4 at 24 C° for 1 h in 96-well plates. The reaction was initiated by addition of t-PA (Calbiochem) up to 5 nM concentration, final volume 100 μl. Kinetic of substrate hydrolysis was measured at 2 min intervals at 405 nm in Spectramax Plus 384 spectrophotometer (Molecular Devices). Analysis of kinetics curves (Vmax, time to Vmax, and initial slope of kinetic data converted to A405 versus time^2) was performed with the help of Softmax PRO program (Molecular Devices).
Kinetics of plasminogen to plasmin conversion consists of three parts. As shown in FIG. #3 curves 1 and 2 for t-PA, during first 1500 s the reaction is second order that corresponds to conversion of plasminogen to plasmin and consequent cleavage of chromogenic substrate by plasmin. The second part of reaction is linear, for which Vmax can be calculated. It starts after total conversion of plasminogen to plasmin and corresponds to cleavage of chromogenic substrate by plasmin with constant rate. In the third part of reaction, after 2700 s, the reaction is slowing down that corresponds to depletion of chromogenic substrate and finally the reaction reaches a plateau when all substrate is cleaved. As follows from the comparison of curves 1 and 2, t-PA along converted plasminogen to plasmin equally efficiently in the presence or absence of calcium. Neither conversion of plasminogen to plasmin took place in the absence of t-PA no S110A4 induced such conversion by itself, curves 5 and 6. In the presence of S100A4 linear part of reaction starts substantially earlier, which means that total conversion of plasminogen to plasmin was accelerated. Kinetic parameters for t-PA along and for combination of t-PA with S100A4 are represented in Table 4. […] S100A4 accelerated conversion of plasminogen to plasmin in calcium independent manner, curves 3 and 4.

Series [4] has as its target T2, t-PA-mediated plasminogen activation. Nature of the series: t-PA-mediated plasminogen conversion kinetics with and without S100A4 (Example 12). The format is biochemical. As for the experimental part:
as §1
The addition of S100A4 to basal reaction (t-PA plus plasminogen) produced a significant increase in the plasminogen conversion rate. […] The stimulation of the plasminogen conversion by S100A4 was concentration-dependent with the half-maximal effect at 2.4 μM.
The kinetic parameters of t-PA-mediated plasminogen conversion were evaluated in the presence and absence of S100A4 as a function of plasminogen concentrations ranging from 3 nM to 3 μM.

Where “and” joins values, the source holds several entries; their conditions need not be identical. Identical values can stand only once. Like-named read-outs stand apart in the source and are kept apart here. Where a SMILES comes first, the peptide text is derived from it.

T1 sequence (P26447 whole entry): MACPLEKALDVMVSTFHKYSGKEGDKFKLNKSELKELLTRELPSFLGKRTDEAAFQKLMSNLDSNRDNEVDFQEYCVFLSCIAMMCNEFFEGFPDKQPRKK
T2 sequence (P00750 36-562): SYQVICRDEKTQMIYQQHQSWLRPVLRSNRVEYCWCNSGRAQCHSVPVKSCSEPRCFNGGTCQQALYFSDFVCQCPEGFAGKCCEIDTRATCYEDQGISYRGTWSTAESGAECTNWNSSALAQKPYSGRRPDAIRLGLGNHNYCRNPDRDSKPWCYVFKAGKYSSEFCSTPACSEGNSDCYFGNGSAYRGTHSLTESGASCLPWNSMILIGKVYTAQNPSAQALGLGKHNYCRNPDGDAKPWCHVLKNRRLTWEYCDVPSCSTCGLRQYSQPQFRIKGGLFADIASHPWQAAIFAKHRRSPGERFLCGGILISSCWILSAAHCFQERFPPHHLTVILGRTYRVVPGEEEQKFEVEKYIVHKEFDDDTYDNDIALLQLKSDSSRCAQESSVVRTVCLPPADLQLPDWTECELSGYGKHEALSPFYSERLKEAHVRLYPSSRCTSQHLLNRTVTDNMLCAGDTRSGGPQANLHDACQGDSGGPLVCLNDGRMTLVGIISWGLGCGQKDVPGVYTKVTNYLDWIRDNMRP

Take `CSCC[C@@H](NC(=O)[C@@H](CCC(=O)O)NC(=O)[C@@H](CCCNC(=N)N)NC(=O)[C@@H](Cc1c[nH]c2ccccc12)NC(=O)CNC(=O)[C@@H](C)NC(C)=O)C(=O)N[C@H](Cc1ccc(O)cc1)C(=O)N[C@H](CO)C(=O)N[C@H](C)C(=O)N[C@H](CC(C)C)C(=O)N[C@H](CO)C(=O)N[C@@H](C)C(=O)N[C@@H](CO)C(=O)N[C@H](Cc1ccc(O)cc1)C(=O)N[C@@H](C(=O)N[C@H](CCC(=O)O)C(=O)N[C@H](CCCNC(=N)N)C(=O)N[C@H](CC(C)C)C(N)=O)C(C)C` [SEQ ID 38, Ac-aGwremysalsASyverl-amide] (HELM PEPTIDE1{[ac].[dA].G.[dW].[dR].[dE].[dM].[dY].[dS].[dA].[dL].[dS].A.S.[dY].[dV].[dE].[dR].[dL].[am]}$$$$V2.0): the “effect on S100A4 acceleration at 15 μM peptide” value at S100A4 [1] (15 μM peptide) is on record as “totally neglected the effect of S100A4”. The IC50 (in general, the concentration at which inhibition is half-maximal) at S100A4 [1] (peptides titrated 0.1-100 μM, 1 μM S100A4, read-out: IC50 for inhibition of accelerating effect of S100A4 on t-PA-dependent conversion of plasminogen to plasmin) is 3.5 µM.
Consider `CSCC[C@H](NC(=O)[C@H](Cc1ccc(O)cc1)NC(=O)[C@H](CO)NC(=O)[C@H](C)NC(=O)[C@H](CC(C)C)NC(=O)[C@H](CO)NC(=O)[C@H](C)NC(=O)CNC(=O)[C@H](Cc1ccc(O)cc1)NC(=O)[C@@H](NC(=O)[C@H](CCC(=O)O)NC(=O)[C@H](CCCNC(=N)N)NC(=O)[C@H](CC(C)C)NC(=O)CNC(=O)[C@H](C)NC(=O)c1ccc2c(c1)C(=O)OC21c2ccc(O)cc2Oc2cc(O)ccc21)C(C)C)C(=O)N[C@@H](CCC(=O)O)C(=O)N[C@@H](CCCNC(=N)N)C(=O)N[C@@H](Cc1c[nH]c2ccccc12)C(N)=O` [SEQ ID NO 7, Fam-AGLREVYGASLASYMERW-amide] (HELM PEPTIDE1{[O=C1OC2(c3ccc(O)cc3Oc3cc(O)ccc32)c2ccc(C(=O)[*:2])cc21].A.G.L.R.E.V.Y.G.A.S.L.A.S.Y.M.E.R.W.[am]}$$$$V2.0), for which the Kd at S100A4 [2] (20 nM peptide, S100A4 0-10000 nM, 1 h room temperature, TBS-EGTA or TBS-Ca, read-out: apparent binding constant of peptide binding to S100A4) came out at 0.236 µM.
“Fam-aGlrevyGASlASymerw-amide [SEQ ID NO 9]”: the “change of fluorescence polarization upon adding S100A4” value in the series with S100A4 [2] is on record as “No change of fluorescence polarization has been detected”.
Regarding “Fam-aGwremysalsASyverl-amide [SEQ ID NO 10]”, the “change of fluorescence polarization upon adding S100A4” value with S100A4 [2] is recorded as “No change of fluorescence polarization has been detected”.
“t-PA: tissue type plasminogen activator (Calbiochem); basal reaction with plasminogen”: the Vmax in series [3] (Ca (5 mM CaCl2)) was 7.152 ± 0.130 ΔA405/t(min) * 1000; in series [3] (EGTA (5 mM)) it was 8.589 ± 0.342 ΔA405/t(min) * 1000; in series [4] (plasminogen 3 nM to 3 μM, presence of EGTA) it was 1.18. The “Slope (initial rate of plasmin generation)” value in series [3] (Ca (5 mM CaCl2)) was 0.078 ΔA405/t^2(min^2) * 1000 and 0.078 ± 0.007 ΔA405/t^2(min^2) * 1000; in series [3] (EGTA (5 mM)), 0.080 ± 0.008 ΔA405/t^2(min^2) * 1000. Also, the “Time to Vmax” value in series [3] (Ca (5 mM CaCl2)) is 2200 s and 2200 ± 69 s; in series [3] (EGTA (5 mM)), 2102 ± 69 s. In addition, the Km (commonly the concentration of substrate that gives half-maximal velocity) was determined as 0.429 µM in series [4] (plasminogen 3 nM to 3 μM, presence of EGTA, read-out: Km) and 0.429 µM in series [4] (plasminogen 3 nM to 3 μM, read-out: Km of the t-PA-mediated plasminogen conversion). In addition, in series [4] (presence of EGTA), the “Increase in t-PA activity” value is on record as 1.
